According to article PMC4305291:

Target: integrin αIIb_W968C (human)
Assay: cross-linking; disulfide between engineered cysteines in cells; S35-labelled CHO cells lysed, immunoprecipitated with anti-αIIb mAb 10E5 and protein G-Sepharose, SDS-PAGE with or without 2 mM DTT, radioautography

- efficiency of disulfide formation: 100%
Substance: integrin β3_I693C (from UniProt P05106 27-788) (natural protein)
